Data reported in patent US20230105029A1 (CHIA TAI TIANQING PHARMACEUTICAL GROUP, published 2023).
Residue numbers refer to the chain shown, from its start. One block for each binder: values may come before it.

What was measured:
[1] = biological target: T1, recombinant human IL4Rα-his protein (in house made) (human, UniProt P24394 26-232, limits assumed); assay: competitive ELISA, blocks biotin-IL4Rα-his binding to coated Benchmark (competitor)
T1 construct: also called Human IL4Ra-his
Description: (§1) The ability of the anti-IL4Rα antibodies of the disclosure to block benchmark-human IL4Rα binding was measured in a competitive ELISA assay. Briefly, the benchmark was coated on 96-well micro plates at 2 μg/mL in PBS, 100 μl per well, and incubated overnight at 4° C. The next day, plates were washed with wash buffer (PBS+0.05% w/v Tween-20, PBST), and blocked with 5% w/v non-fatty milk in PBST for 2 hours at 37° C. tiring plate blocking, the anti-IL4Rα antibodies of the disclosure or controls were diluted with biotin labeled human IL4Rα-his proteins (prepared in-house with SEQ ID NO: 57, 0.55 nM in 2.5% w/v non-fatty milk in PBST), starting at 100 nM with a 4-fold serial dilution, and incubated at 25° C. for 40 minutes. After plate washing, the antibody/IL4Rα-his mixtures were added to benchmark coated plates, 100 μl per well. After incubation at 37° C. for 40 minutes, plates were washed using wash buffer. Then the plates were added and incubated with 100 μl/well streptavidin conjugated HRP for 40 minutes at 37° C. to detect biotin-labeled human IL4Rα-his bound to plates. Plates were washed again using wash buffer. Finally, TMB was added and the reaction was stopped using 1M H₂SO₄, and the absorbance was read at 450 nm. Data was analyzed using Graphpad Prism software and IC₅₀ values were reported.

[2] = biological target: T1, recombinant human IL4Rα-his protein (in …); assay: competitive ELISA: coated human IL4Rα-his, blocked ligand biotin human IL4
Description: The activity of the anti-IL4Rα antibodies of the disclosure to block IL4-IL4Rα interaction was measured in a competitive ELISA assay. Briefly, 100 μl human IL4Rα-his proteins (prepared in-house with SEQ ID NO: 57) were coated on 96-well micro plates at 2 μg/mL in PBS overnight at 4° C. The next day, plates were washed with wash buffer (PBS+0.05% w/v Tween-20, PBST), and blocked with 5% w/v non-fatty milk in PBST for 2 hours at 37° C. Plates were then washed again using wash buffer.
Serially diluted anti-IL4Rα antibodies or the controls (starting at 80 nM with a 4-fold serial dilution) in 2.5% w/v non-fatty milk in PBST, 100 μl per well, were added to the IL4Rα bound plates, and incubated with the human IL4Rα-his proteins at 37° C. for 40 minutes. Plates were washed 4 times using wash buffer, and then added and incubated for 40 minutes at 37° C. with 100 μl/well of 0.56 nM biotin-labeled human IL4 protein (Sino biological inc., Cat #11846-HNAE). Plates were washed again using wash buffer. Thereafter, the plates were added with 100 μl/well of streptavidin conjugated HRP (1:10000 dilution in PBST buffer, Jackson Immunoresearch, Cat #016-030-084) and incubated for 40 minutes at 37° C. Plates were washed again using wash buffer. Finally, TMB was added and the reaction was stopped using 1M H₂SO₄, and the absorbance was read at 450 nm. Data was analyzed using Graphpad Prism software and IC₅₀ values were reported.

[3] = biological target: T1, recombinant human IL4Rα-his protein (in …); assay: competitive ELISA: antibody mixed with biotin human IL4Rα-his, competitor plate-coated Benchmark
Description: as §1

[4] = biological target: T1, recombinant human IL4Rα-his protein (in …); assay: capture ELISA: antibody captured on anti-IgG Fc plate, biotin human IL4Rα-his detected
Description: Plates were washed once with wash buffer (PBS+0.05% w/v Tween-20, PBST) and then blocked with 200 μl/well blocking buffer (5% w/v non-fatty milk in PBST) for 2 hours at 37° C. Plates were washed again and incubated with 100 μl/well serially diluted anti-IL4Rα antibodies of the disclosure, the benchmark or negative control hIgG (human immunoglobulin (pH4) for intravenous injection, Hualan Biological Engineering Inc.) (5-fold dilution in 2.5% w/v non-fatty milk in PBST, starting at 66.7 nM) for 40 minutes at 37° C., and then washed 4 times again. Plates containing captured anti-IL4Rα antibodies were incubated with biotin-labeled human IL4Rα-his protein (in house made with SEQ ID NO: 57, 0.14 nM in 2.5% w/v non-fatty milk in PBST, 100 μl/well) for 40 minutes at 37° C., washed 4 times, and incubated with streptavidin conjugated HRP (1:10000 dilution in PBST, Jackson Immuno Research, Cat #016-030-084, 100 μl/well) for 40 minutes at 37° C. After a final wash, plates were incubated with 100 μl/well ELISA substrate TMB (Innoreagents, Cat #TMB-S-002). The reaction was stopped in 10 minutes at 25° C. with 50 μl/well 1M H₂SO₄, and the absorbance was read at 450 nm. Data was analyzed using Graphpad Prism software and EC₅₀ values were reported.
For the capture ELISA, 96-well micro plates were coated with 2 μg/ml goat anti-human IgG (AffiniPure Goat Anti-Human IgG, Fcγ fragment specific, Jackson Immunoresearch, Cat #109-005-098) instead of goat anti-mouse IgG Fey fragment, 100 μl/well.

[5] = biological target: T2, human IL4Rα expressed on 293F-IL4Rα cells (human, UniProt P24394 26-825); assay: flow cytometry, 293F-IL4Rα cells
T2 construct: whole, on cells; also called cell surface human IL4Rα
Description: Then, 2×10⁵ cells per well in 96 well-plates were incubated in 100 μL of the anti-IL4Rα antibodies or controls of various concentrations (starting at 80 nM with a 4-fold serial dilution) in FACS buffer for 40 minutes on ice. […] Following an incubation of 40 minutes at 4° C. in dark, cells were washed three times and resuspended in FACS buffer. Fluorescence was measured using a Becton Dickinson FACS Canto II-HTS equipment. Data was analyzed using Graphpad Prism software and EC₅₀ values were reported.

[6] = biological target: T3, marmoset monkey IL4Rα-his protein (marmoset monkey); assay: indirect ELISA, coated cal-IL4Rα-his
T3 construct: Custom made by Sino biological; no cleavage site stated; also called cal-IL4Rα-his; Cal-IL4Rα
T3 chain: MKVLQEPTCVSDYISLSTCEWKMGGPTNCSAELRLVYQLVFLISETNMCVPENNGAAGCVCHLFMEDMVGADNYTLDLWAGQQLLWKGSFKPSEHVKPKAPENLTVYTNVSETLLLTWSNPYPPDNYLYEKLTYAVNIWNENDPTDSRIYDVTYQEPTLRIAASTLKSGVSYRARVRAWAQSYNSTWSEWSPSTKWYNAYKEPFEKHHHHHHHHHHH

B1: mouse antibody B1D2F7D3B5 (antibody, V domains shown)
VH: EVKLVESGGGLVKPGGSLKLSCAASGFTFSSYAMSWVRQTPEKRLEWVASISSGDSTYYLDSVKGRFTISRDNAMNILYLQMSSLRSEDTAVYYCERSGGSAPYWGQGTLVSVSA
VL: QIVLTQSPAIMSASPGEMVTISCSASSSVSYMYWYQQKPGSSPKPWIYRTSNLASGVPARFSGSGSGTSYSLTISSMEAEDAATYYCQQYHSFPLTFGAGTKLELK
notes: Mouse hybridoma mAb
IC50 [1]: 0.02 nM | IC50 [2]: 1.8 nM | IC50 [3]: 0.024 nM

B2: mouse antibody B9D1D11F8D8 (antibody, V domains shown)
VH: B1 VH with M75R, M82V, V92M, S112T
VL: B1 VL with E17D, S30N
notes: Mouse hybridoma mAb
IC50 [1]: 0.02 nM | IC50 [2]: 2.88 nM | IC50 [3]: 0.0209 nM

B3: mouse antibody C2C1A1A1 (antibody, V domains shown)
VH: EVQLVESGGGLVQPGGSLKLSCAASGFTFSTYGMSWVRQTPDKRLELVATINSNGGSTSYPDSVKGRFTISRDNAKNTLYLQMSSLKSEDTAMFYCARFFRFRNAMDYWGQGTSVTVSS
VL: DIQMTQSPASLSASVGETVTITCRTSENIYSYLAWYQQKQGKSPQFLVYNAKTLAEGVPSRFSGSGSGTQFSLNINSLQSEDFGSYYCQHYYGPPTWTFGGGTKLEIK
notes: Mouse hybridoma mAb; also called Mouse C2C1A1A1
IC50 [1]: 0.04 nM | IC50 [2]: 0.812 nM | EC50 [4]: 0.0262 nM | IC50 [3]: 0.0383 nM

B4: chimeric antibody C2C1A1A1 (antibody, human IgG4 S228P, kappa, V domains shown)
VH: B3 VH
VL: DIQMTQSPASLSASVGETVTITCRTSENIYSYLAWYQQKQGKSPQFLVYNAKTLAEGVPSRFSGSGSGTQFSLNINSLQSEDFGSYYCQHYYGPPTWTFGGGTKLEIKR
notes: Mouse variable domains on human IgG4/kappa; also called Chimeric C2C1A1A1; chC2C1A1A1
EC50 [5]: 0.33 nM | EC50 [6]: 0.62 nM | IC50 [1]: 0.17 nM | EC50 [4]: 0.0549 nM

B6: mouse antibody B8G11F2B7G5E8 (antibody, V domains shown)
VH: EVQLQQSGADLVRPGASVKLSCTASGFNIKDTYMHWVKQRPEQGLEWVGRIDPTNGYTIYASKFQGKATITADTSSNTAYMQLSSLTSGDTAVYHCVSRRPWFAYWGQGTLVTVSA
VL: DILMTQTPLSLPVSLGAQASISCRSSQSIVHSNGNTYLEWYLQKPGQSPKLLIYKVTNRFSGVPDRFSGSGSGTDFTLKISRVEAEDLGIYYCFQGSHVPYTFGGGTKLEIK
notes: Mouse hybridoma mAb; also called Mouse B8G11F2B7G5E8; mAb B8G11F2B7G5E8
EC50 [5]: 0.33 nM | EC50 [6]: 0.87 nM | IC50 [1]: 0.02 nM | IC50 [2]: 0.81 nM | EC50 [4]: 0.143 nM | IC50 [3]: 0.0171 nM

The remaining binders from weak to strong by IC50 [1], led by results:

EC50 [5]: 0.44 nM | EC50 [6]: 1.01 nM | IC50 [1]: 1.52 nM | EC50 [4]: 0.275 nM
B7: chimeric antibody B8G11F2B7G5E8 (antibody, human IgG4 S228P, kappa, V domains shown)
VH: B6 VH
VL: DILMTQTPLSLPVSLGAQASISCRSSQSIVHSNGNTYLEWYLQKPGQSPKLLIYKVTNRFSGVPDRFSGSGSGTDFTLKISRVEAEDLGIYYCFQGSHVPYTFGGGTKLEIKR
notes: Mouse variable domains on human IgG4/kappa; also called Chimeric B8G11F2B7G5E8; chB8G11F2B7G5E8

IC50 [1]: 0.72 nM | IC50 [2]: 0.726 nM | IC50 [3]: 0.716 nM
B5: mouse antibody C2B2F7B7 (antibody, V domains shown)
VH: B3 VH with S59N, F94Y, F102I
VL: B3 VL with T25A, N74K, S80P, P94T
notes: Mouse hybridoma mAb
